Positions count from the first letter of the chain named.
T1: Cas1-2 integrase complex Wt (Escherichia coli (type I-E), UniProt Q46896;P45956 1-305;1-94)
T1 sequence 1: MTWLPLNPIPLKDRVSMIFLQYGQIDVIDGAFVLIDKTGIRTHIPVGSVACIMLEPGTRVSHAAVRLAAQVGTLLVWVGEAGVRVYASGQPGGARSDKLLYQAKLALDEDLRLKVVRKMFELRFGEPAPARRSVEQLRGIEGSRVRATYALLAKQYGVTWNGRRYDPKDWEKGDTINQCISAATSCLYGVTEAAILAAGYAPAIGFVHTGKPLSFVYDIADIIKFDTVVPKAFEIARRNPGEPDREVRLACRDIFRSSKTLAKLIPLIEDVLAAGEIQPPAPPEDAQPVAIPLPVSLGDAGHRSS
T1 sequence 2: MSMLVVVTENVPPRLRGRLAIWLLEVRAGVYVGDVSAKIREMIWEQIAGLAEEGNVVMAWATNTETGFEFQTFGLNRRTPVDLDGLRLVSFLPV

T2: Cas1-2 Y22A (Escherichia coli (type I-E), UniProt Q46896;P45956 1-305;1-94, Y22A)
T2 sequence 1: T1 sequence 1 with Y22A
T2 sequence 2: T1 sequence 2

B1: P33 (dsDNA)
DNA 1: GCCCAATTTACTACTCGTTCTGGTGTTTCTCGT
DNA 2: ACGAGAAACACCAGAACGAGTAGTAAATTGGGC
B2: P23[3'-10] (dsDNA)
DNA 1: ATTTACTACTCGTTCTGGTGTTTCTCGTCAGGG
DNA 2: AAACACCAGAACGAGTAGTAAATTGGGCTTGAG
B3: P23[3'-5] (dsDNA)
DNA 1: ATTTACTACTCGTTCTGGTGTTTCTCGT
DNA 2: AAACACCAGAACGAGTAGTAAATTGGGC
B4: P63mPAMT* (dsDNA)
DNA 1: CTCCGCGCTGTAGCCCTCACCACTGTTGTGCACGACGACACCAGTCCGTGGCGTTATCCAGCT
DNA 2: AGCTGGATAACGCCACGGACTGGTGTCGTCGTGCACAACAGTGGTGAGGGCTACAGCGCGGAG
B5: P63 (dsDNA)
DNA 1: B4 DNA 1 with C14A, C15A, C16G, C23T, C41T, G44T
DNA 2: B4 DNA 2 with C20A, G23A, G41A, G48C, G49T, G50T
B6: P63mPAMB* (dsDNA)
DNA 1: B4 DNA 1
DNA 2: B4 DNA 2

Experiments:
[1] = target: T1, Cas1-2 integrase complex Wt; experiment: EMSA
[2] = target: T1, Cas1-2 integrase complex Wt; experiment: T5 exonuclease footprinting
Cas1-2 Y22A = target: T2, Cas1-2 Y22A; experiment: EMSA

Binder | Kd [1] | binding result [2] | Kd (Cas1-2 Y22A)
B1 | 2660 nM |  | 
B2 | 286 nM |  | 
B3 | 254 nM |  | 
B4 |  | binds | 
B5 | 831 nM |  | 6220 nM
B6 |  | binds | 

From publication doi:10.1101/602623
